US20250002543A1

Legend:
[1] = target: human antibody (gamma globulin preparation, manufactured by The Chemo-Sero-Therapeutic Research Institute) (human); assay: ELISA; human gamma globulin immobilised; acid treatment 50 mM buffer pH 3.0, 25 C, 15 min; elution rate = 1 - remaining binding activity
[2] = target: human antibody (gamma globulin preparation, manufactured by The Chemo-Sero-Therapeutic Research Institute) (human); assay: ELISA; human gamma globulin immobilised; acid treatment 50 mM buffer pH 3.2, 25 C, 5 min; elution rate = 1 - remaining binding activity
[3] = target: human antibody (gamma globulin preparation, manufactured by The Chemo-Sero-Therapeutic Research Institute) (human); assay: as above; remark: listed apart in the source
[4] = target: immunoglobulin immobilized on IgG Sepharose 6 Fast Flow (manufactured by Cytiva); assay: IgG Sepharose 6 Fast Flow column; linear gradient 0.1 M citrate pH 6.5 to pH 2.2; pH at the peak of the eluted binding protein

B1: FpL_C3KX 7d (designed binder)
chain: ETPGESAEEVTIRVNLIFADGRIQTAEFIGTFEEATAEAYAYANLLARDYGDFTADLEDGGYTINIRFAGHHHHHH
B1 was tested, and the Elution rate [%] [1] was 78%.

B2: FpL_C3KX 7e amino acid substitution mutant Glu34Leu (designed binder)
chain: ETPGESAEEVTIRVNLIFADGRIQTAEFIGTFELATAEAYAYANLLARDYGEFTADLEDGGYTINIRFVGHHHHHH
With B2 the Elution rate [%] [2] was 51%.

B3: FpL_C3KX 9d (designed binder)
chain: ETPGESAEEVTIRVNLIFADGRIQTAEFIGTFEEATAEAYAYARLLARDYGEFTADLEDGGYTLNIRFVGHHHHHH
B3 gave an Elution rate [%] [3] of 63%.

B4: FpL_C3KX 7e amino acid substitution mutant Glu34Phe (designed binder)
chain: ETPGESAEEVTIRVNLIFADGRIQTAEFIGTFEFATAEAYAYANLLARDYGEFTADLEDGGYTINIRFVGHHHHHH
Work on B4 yielded an Elution rate [%] [2] of 64%.

B5: FpL_C3KX 9c (designed binder)
chain: ETPGESAEEVTIRVNLIFADGRRQTAEFIGTFEEATAEAYAYANLLARDYGEFTADLEDGGYTLNIRFVGHHHHHH
Work on B5 yielded an Elution rate [%] [3] of 69%.

B6: FpL_C3KX 10b (designed binder)
chain: ETPGESAEEVTIRVNLIFADGRRQTAEFIGTFEEATAEAYAYAHLLAHDYGEFTADLEDGGYTLNIRFVGHHHHHH
In the case of B6, the Elution rate [%] [3] is reported as 67%.

B7: FpL_C3KX 9a (designed binder)
chain: ETPGESAEEVTIRVNLIFADGRRQTAEFIGTFEEATAEAYAYARLLARDYGEFTADLEDGGYTINIRFVGHHHHHH
With B7 the Elution rate [%] [3] was 70%.

B8: FpL_C3KX 10a (designed binder)
chain: ETPGESAEEVTIRVNLIFADGRRQTAEFIGTFEEATAEAYAYARLLAHDYGEFTADLEDGGYTLNIRFVGHHHHHH
B8 showed an Elution rate [%] [3] of 75%.

B9: FpL_C3KX 7d_K48H (designed binder)
chain: ETPGESAEEVTIRVNLIFADGRIQTAEFIGTFEEATAEAYAYANLLAHDYGDFTADLEDGGYTINIRFAGHHHHHH
In the case of B9, the Elution rate [%] [1] is reported as 85%.

B10: FpL_C3KX 7d_N44R (designed binder)
chain: ETPGESAEEVTIRVNLIFADGRIQTAEFIGTFEEATAEAYAYARLLARDYGDFTADLEDGGYTINIRFAGHHHHHH
Binder B10 has an Elution rate [%] [1] of 82%.

B11: FpL_C3KX 7d_E8R (designed binder)
chain: ETPGESAREVTIRVNLIFADGRIQTAEFIGTFEEATAEAYAYANLLARDYGDFTADLEDGGYTINIRFAGHHHHHH
For B11, the Elution rate [%] [1] was 82%.

B12: FpL_C3KX 7d_P6A (designed binder)
chain: ETPGEAAEEVTIRVNLIFADGRIQTAEFIGTFEEATAEAYAYANLLARDYGDFTADLEDGGYTINIRFAGHHHHHH
Binder B12 has an Elution rate [%] [1] of 82%.

B13: FpL_C3KX 7d_I23L (designed binder)
chain: ETPGESAEEVTIRVNLIFADGRLQTAEFIGTFEEATAEAYAYANLLARDYGDFTADLEDGGYTINIRFAGHHHHHH
B13 was tested, and the Elution rate [%] [1] was 82%.

B14: FpL_C3KX 7e amino acid substitution mutant Glu34Val (designed binder)
chain: ETPGESAEEVTIRVNLIFADGRIQTAEFIGTFEVATAEAYAYANLLARDYGEFTADLEDGGYTINIRFVGHHHHHH
Binder B14 has an Elution rate [%] [2] of 29%.

B15: FpL_C3KX 7d_K38L (designed binder)
chain: ETPGESAEEVTIRVNLIFADGRIQTAEFIGTFEEATALAYAYANLLARDYGDFTADLEDGGYTINIRFAGHHHHHH
For B15, the Elution rate [%] [1] was 88%.

B16: FpL_C3KX 7e amino acid substitution mutant Glu34Asp (designed binder)
chain: ETPGESAEEVTIRVNLIFADGRIQTAEFIGTFEDATAEAYAYANLLARDYGEFTADLEDGGYTINIRFVGHHHHHH
With B16 the Elution rate [%] [2] was 46%.

B17: FpL_C3KX 9b (designed binder)
chain: ETPGESAEEVTIRVNLIFADGRRQTAEFIGTFEEATAEAYAYAHLLARDYGEFTADLEDGGYTINIRFVGHHHHHH
B17 was tested, and the Elution rate [%] [3] was 68%.

B18: FpL_C3KX 7d_Y53S (designed binder)
chain: ETPGESAEEVTIRVNLIFADGRIQTAEFIGTFEEATAEAYAYANLLARDYGDSTADLEDGGYTINIRFAGHHHHHH
B18 showed an Elution rate [%] [1] of 83%.

B19: FpL_C3KX 7e (designed binder)
chain: ETPGESAEEVTIRVNLIFADGRIQTAEFIGTFEEATAEAYAYANLLARDYGEFTADLEDGGYTINIRFVGHHHHHH
Binder B19 has an Elution rate [%] [2] of 26% and an Elution rate [%] [3] of 46%.

B20: FpL_C3KX 7d_N44H (designed binder)
chain: ETPGESAEEVTIRVNLIFADGRIQTAEFIGTFEEATAEAYAYAHLLARDYGDFTADLEDGGYTINIRFAGHHHHHH
In the case of B20, the Elution rate [%] [1] is reported as 82%.

B21: FpL_C3KX 7d_E33V (designed binder)
chain: ETPGESAEEVTIRVNLIFADGRIQTAEFIGTFVEATAEAYAYANLLARDYGDFTADLEDGGYTINIRFAGHHHHHH
Work on B21 yielded an Elution rate [%] [1] of 86%.

B22: FpL_C3KX 7e amino acid substitution mutant Asn15Val (designed binder)
chain: ETPGESAEEVTIRVVLIFADGRIQTAEFIGTFEEATAEAYAYANLLARDYGEFTADLEDGGYTINIRFVGHHHHHH
In the case of B22, the Elution rate [%] [2] is reported as 29%.

B23: FpL_C3KX 7d_G21R (designed binder)
chain: ETPGESAEEVTIRVNLIFADRRIQTAEFIGTFEEATAEAYAYANLLARDYGDFTADLEDGGYTINIRFAGHHHHHH
B23 gave an Elution rate [%] [1] of 82%.

B24: FpL_C3KX 9e (designed binder)
chain: ETPGESAEEVTIRVNLIFADGRIQTAEFIGTFEEATAEAYAYAHLLARDYGEFTADLEDGGYTLNIRFVGHHHHHH
B24 gave an Elution rate [%] [3] of 68%.

B25: FpL_C3KX 7d_E8G (designed binder)
chain: ETPGESAGEVTIRVNLIFADGRIQTAEFIGTFEEATAEAYAYANLLARDYGDFTADLEDGGYTINIRFAGHHHHHH
B25 showed an Elution rate [%] [1] of 80%.

B26: FpL_C3KX 7d_K38H (designed binder)
chain: ETPGESAEEVTIRVNLIFADGRIQTAEFIGTFEEATAHAYAYANLLARDYGDFTADLEDGGYTINIRFAGHHHHHH
Binder B26 has an Elution rate [%] [1] of 86%.

B27: FpL_C3KX 7d_E52Y (designed binder)
chain: ETPGESAEEVTIRVNLIFADGRIQTAEFIGTFEEATAEAYAYANLLARDYGYFTADLEDGGYTINIRFAGHHHHHH
Work on B27 yielded an Elution rate [%] [1] of 85%.

B28: FpL_C3KX 7d_N50M (designed binder)
chain: ETPGESAEEVTIRVNLIFADGRIQTAEFIGTFEEATAEAYAYANLLARDMGDFTADLEDGGYTINIRFAGHHHHHH
B28 showed an Elution rate [%] [1] of 86%.

B29: FpL_C3KX 7d_I23F (designed binder)
chain: ETPGESAEEVTIRVNLIFADGRFQTAEFIGTFEEATAEAYAYANLLARDYGDFTADLEDGGYTINIRFAGHHHHHH
Binder B29 has an Elution rate [%] [1] of 81%.

B30: FpL_C4KR amino acid substitution mutant Lys(Arg)7Gln (designed binder)
chain: ETPEEPQEEVTIRVNLIFADGRTQTAEFRGTFEEATAEAYRYADLLARVNGEYTADLEDGGYTINIRFAGHHHHHH
With B30 the Elution pH [4] was 3 pH.

B31: FpL_C4KR amino acid substitution mutant Lys(Arg)13Val (designed binder)
chain: ETPEEPREEVTIVVNLIFADGRTQTAEFRGTFEEATAEAYRYADLLARVNGEYTADLEDGGYTINIRFAGHHHHHH
B31 showed an Elution pH [4] of 3.1 pH.

B32: FpL_C4KR amino acid substitution mutant Lys(Arg)22Thr (designed binder)
chain: ETPEEPREEVTIRVNLIFADGTTQTAEFRGTFEEATAEAYRYADLLARVNGEYTADLEDGGYTINIRFAGHHHHHH
Work on B32 yielded an Elution pH [4] of 3.2 pH.

B33: FpL_C4KR amino acid substitution mutant Lys(Arg)29Pro (designed binder)
chain: ETPEEPREEVTIRVNLIFADGRTQTAEFPGTFEEATAEAYRYADLLARVNGEYTADLEDGGYTINIRFAGHHHHHH
B33 gave an Elution pH [4] of 3.2 pH.

B34: FpL_C4KR amino acid substitution mutant Lys(Arg)29Val (designed binder)
chain: ETPEEPREEVTIRVNLIFADGRTQTAEFVGTFEEATAEAYRYADLLARVNGEYTADLEDGGYTINIRFAGHHHHHH
With B34 the Elution pH [4] was 3.1 pH.

B35: FpL_C4KR amino acid substitution mutant Lys(Arg)29Ile (designed binder)
chain: ETPEEPREEVTIRVNLIFADGRTQTAEFIGTFEEATAEAYRYADLLARVNGEYTADLEDGGYTINIRFAGHHHHHH
B35 gave an Elution pH [4] of 3.1 pH.

B36: FpL_C3 G21R (designed binder)
chain: ETPEEPKEEVTIKVNLIFADRKIQTAEFKGTFEEATAKAYAYANLLAKENGEYTADLEDGGNTINIKFAGHHHHHH
Binder B36 has an Elution pH [4] of 3.4 pH.

B37: FpL_C3 N62Y (designed binder)
chain: ETPEEPKEEVTIKVNLIFADGKIQTAEFKGTFEEATAKAYAYANLLAKENGEYTADLEDGGYTINIKFAGHHHHHH
In the case of B37, the Elution pH [4] is reported as 3 pH.

B38: FpL_C3 N62H (designed binder)
chain: ETPEEPKEEVTIKVNLIFADGKIQTAEFKGTFEEATAKAYAYANLLAKENGEYTADLEDGGHTINIKFAGHHHHHH
B38 showed an Elution pH [4] of 3 pH.

B39: FpL_C3 N62R (designed binder)
chain: ETPEEPKEEVTIKVNLIFADGKIQTAEFKGTFEEATAKAYAYANLLAKENGEYTADLEDGGRTINIKFAGHHHHHH
With B39 the Elution pH [4] was 3 pH.

B40: FpL_C3 G51V (designed binder)
chain: ETPEEPKEEVTIKVNLIFADGKIQTAEFKGTFEEATAKAYAYANLLAKENVEYTADLEDGGNTINIKFAGHHHHHH
Binder B40 has an Elution pH [4] of 3.4 pH.

B41: FpL_C3 N62W (designed binder)
chain: ETPEEPKEEVTIKVNLIFADGKIQTAEFKGTFEEATAKAYAYANLLAKENGEYTADLEDGGWTINIKFAGHHHHHH
In the case of B41, the Elution pH [4] is reported as 3 pH.
